Reference: the supplement of paper PMC10724198
± gives the standard deviation of the averaged measurements.

Experiments:
Saccharomyces cerevisiae [1] = assay: protein stability index of tFT-peptide fusion (C-terminal peptide) (PSI (0-1 scale)); higher = more stable (slower turnover); details: genetic background: wild type; temperature: 30 C
Saccharomyces cerevisiae [2] = assay: as above
Method: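 MPS profiling in S. cerevisiae of the tFT-X12 degron library: putative degron peptides plus stable controls, 12 aa, fused to the C-terminus of a sfGFP-mCherry timer. Cells are FACS-sorted into 8 mCherry/sfGFP bins and deep-sequenced. PSI runs from 0 (unstable) to 1 (stable). Backgrounds are wild type, das1Δ and doa10Δ at 30 °C, and wild type, das1Δ, cdc34-1 and cdc53-1 at 37 °C; 2-3 technical replicates each.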

[3] = genetic background: cdc34-1, temperature: 37 C
[4] = genetic background: cdc53-1, temperature: 37 C
[5] = genetic background: das1 deletion, temperature: 30 C
[6] = genetic background: das1 deletion, temperature: 37 C
[7] = genetic background: doa10 deletion, temperature: 30 C
[8] = genetic background: wild type, temperature: 30 C
[9] = genetic background: wild type, temperature: 37 C
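Note: PSI is a weighted mean of sequencing reads over stability bins, variants kept only with over 10 reads, mCherry proximal and sfGFP distal, peptide attached via GGGS linker.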

| Sequence | protein stability index (Saccharomyces cerevisiae [1]) | protein stability index (Saccharomyces cerevisiae [2]; [3]) | protein stability index (Saccharomyces cerevisiae [2]; [4]) | protein stability index (Saccharomyces cerevisiae [2]; [5]) | protein stability index (Saccharomyces cerevisiae [2]; [6]) | protein stability index (Saccharomyces cerevisiae [2]; [7]) | protein stability index (Saccharomyces cerevisiae [2]; [8]) | protein stability index (Saccharomyces cerevisiae [2]; [9]) |
| --- | --- | --- | --- | --- | --- | --- | --- | --- |
| SCFDRQIFVPVC | 0.442 ± 0.013 | 0.358 ± 0.0078 | 0.3925 ± 0.001 | 0.302 ± 0.033 | 0.461 ± 0.013 | 0.274 ± 0.0059 | 0.308 ± 0.032 | 0.4173 ± 0.0038 |
| SDLQVMKLRSVC | 0.398 ± 0.067 | 0.717 ± 0.048 | 0.742 ± 0.045 | 0.619 ± 0.025 | 0.714 ± 0.026 | 0.185 ± 0.007 | 0.191 ± 0.013 | 0.456 ± 0.021 |
| SFFYFVFYYLSF | 0.2916 ± 0.0027 | 0.161 ± 0.042 | 0.17 ± 0.019 | 0.259 ± 0.015 | 0.364 ± 0.017 | 0.253 ± 0.016 | 0.204 ± 0.033 | 0.308 ± 0.01 |
| SFIFFVSCFFIF | 0.3325 ± 0.0024 | 0.274 ± 0.043 | 0.378 ± 0.011 | 0.294 ± 0.029 | 0.451 ± 0.024 | 0.263 ± 0.0092 | 0.266 ± 0.017 | 0.416 ± 0.016 |
| SFLRVRSLISCS | 0.294 ± 0.022 | 0.252 ± 0.026 | 0.257 ± 0.035 | 0.223 ± 0.025 | 0.404 ± 0.021 | 0.168 ± 0.0032 | 0.204 ± 0.026 | 0.348 ± 0.013 |
| SFSRLWSLFRCL | 0.244 ± 0.00058 | 0.462 ± 0.041 | 0.68 ± 0.026 | 0.682 ± 0.014 | 0.752 ± 0.014 | 0.15 ± 0.0057 | 0.13 ± 0.036 | 0.31 ± 0.038 |
| SFVCFSYYIVNI | 0.51 ± 0.03 | 0.453 ± 0.021 | 0.482 ± 0.005 | 0.377 ± 0.021 | 0.564 ± 0.022 | 0.381 ± 0.023 | 0.363 ± 0.027 | 0.548 ± 0.049 |
| SFVLLSSFLVFV | 0.323 ± 0.013 | 0.249 ± 0.016 | 0.272 ± 0.042 | 0.262 ± 0.02 | 0.39553 ± 9.9e-06 | 0.275 ± 0.0036 | 0.241 ± 0.014 | 0.355 ± 0.0082 |
| SGFLNVGYLWVC | 0.239 ± 0.069 | 0.5625 ± 0.00014 | 0.635 ± 0.0083 | 0.482 ± 0.025 | 0.644 ± 0.017 | 0.149 ± 0.012 | 0.175 ± 0.02 | 0.308 ± 0.02 |
| SIFLCRLQNLLI | 0.389 ± 0.077 | 0.637 ± 0.0071 | 0.742 ± 0.023 | 0.632 ± 0.0083 | 0.734 ± 0.018 | 0.19 ± 0.017 | 0.209 ± 0.035 | 0.407 ± 0.0057 |
| SILVSIFILAMQ | 0.189 ± 0.019 | 0.205 ± 0.029 | 0.311 ± 0.0043 | 0.229 ± 0.043 | 0.412 ± 0.0063 | 0.199 ± 0.008 | 0.219 ± 0.048 | 0.355 ± 0.015 |
| SIRVIVAVRNIS | 0.431 ± 0.052 | 0.621 ± 0.033 | 0.648 ± 0.041 | 0.554 ± 0.023 | 0.663 ± 0.0092 | 0.21 ± 0.015 | 0.239 ± 0.038 | 0.4346 ± 0.0024 |
| SISVQCSMLRVL | 0.331 ± 0.0089 | 0.456 ± 0.036 | 0.47 ± 0.0037 | 0.389 ± 0.048 | 0.482 ± 0.0086 | 0.303 ± 0.02 | 0.294 ± 0.018 | 0.387 ± 0.038 |
| SLARLRRICFNT | 0.3604 ± 0.0024 | 0.632 ± 0.042 | 0.685 ± 0.0072 | 0.648 ± 0.031 | 0.719 ± 0.023 | 0.254 ± 0.011 | 0.27 ± 0.042 | 0.469 ± 0.021 |
| SLRPFFPPLPRP | 0.666 ± 0.28 | 0.631 ± 0.06 | 0.729 ± 0.0088 | 0.69 ± 0.033 | 0.7305 ± 0.0014 | 0.723 ± 0.026 | 0.702 ± 0.031 | 0.7187 ± 0.0031 |
| SLVPSIFLFRIF | 0.4516 ± 0.0032 | 0.566 ± 0.042 | 0.613 ± 0.0084 | 0.544 ± 0.028 | 0.682 ± 0.0094 | 0.323 ± 0.0096 | 0.307 ± 0.022 | 0.467 ± 0.014 |
| SLVVMGSLWLRI | 0.415 ± 0.0096 | 0.275 ± 0.15 | 0.162 ± 0.093 | 0.346 ± 0.081 | 0.463 ± 0.024 | 0.468 ± 0.052 | 0.314 ± 0.077 | 0.425 ± 0.07 |
| SMGVLITYLVQV | 0.45 ± 0.04 | 0.399 ± 0.021 | 0.461 ± 0.012 | 0.324 ± 0.024 | 0.51 ± 0.015 | 0.25 ± 0.007 | 0.288 ± 0.033 | 0.452 ± 0.0061 |
| SMPWFWFVRGIG | 0.461 ± 0.0082 | 0.497 ± 0.041 | 0.531 ± 0.0014 | 0.5 ± 0.017 | 0.557 ± 0.0094 | 0.438 ± 0.032 | 0.417 ± 0.013 | 0.5186 ± 0.0039 |
